Source: IntAct's records for PubMed 12628189

B1: Protein TEM1 (Saccharomyces cerevisiae), P38987 (parent)
chain: MATPSTGANNSIPAVRNQVEVQVGLVGDAQVGKTSLMVKYVQNIYDKEYTQTLGVNFLKRKVSIRSTDIIFSIMDLGGQREFINMLPIATVGSSVIIFLFDLTRPETLSSIKEWYRQAYGLNDSAIPILVGTKYDLLIDLDPEYQEQISRTSMKYAQVMNAPLIFCSTAKSINIQKIFKIALAKIFNLTLTIPEINEIGDPLLIYKHLGGQQHRHHNKSQDRKSHNIRKPSSSPSSKAPSPGVNT
partner: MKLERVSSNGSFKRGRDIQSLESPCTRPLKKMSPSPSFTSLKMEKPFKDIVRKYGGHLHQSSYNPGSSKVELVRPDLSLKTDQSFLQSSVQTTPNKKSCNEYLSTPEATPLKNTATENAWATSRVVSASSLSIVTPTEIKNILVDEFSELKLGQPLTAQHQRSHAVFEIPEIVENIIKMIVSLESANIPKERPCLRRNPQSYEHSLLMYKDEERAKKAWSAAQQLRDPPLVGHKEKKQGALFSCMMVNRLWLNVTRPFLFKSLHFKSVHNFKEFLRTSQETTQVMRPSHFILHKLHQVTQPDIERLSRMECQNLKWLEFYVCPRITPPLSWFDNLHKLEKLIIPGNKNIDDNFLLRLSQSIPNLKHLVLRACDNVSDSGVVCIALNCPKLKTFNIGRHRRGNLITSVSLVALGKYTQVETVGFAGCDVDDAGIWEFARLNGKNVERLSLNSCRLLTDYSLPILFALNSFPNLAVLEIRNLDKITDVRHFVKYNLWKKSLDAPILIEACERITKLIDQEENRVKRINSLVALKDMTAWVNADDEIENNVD
B2: Protein TEM1 (Saccharomyces cerevisiae), P38987 (parent)
chain: B1 chain
partner: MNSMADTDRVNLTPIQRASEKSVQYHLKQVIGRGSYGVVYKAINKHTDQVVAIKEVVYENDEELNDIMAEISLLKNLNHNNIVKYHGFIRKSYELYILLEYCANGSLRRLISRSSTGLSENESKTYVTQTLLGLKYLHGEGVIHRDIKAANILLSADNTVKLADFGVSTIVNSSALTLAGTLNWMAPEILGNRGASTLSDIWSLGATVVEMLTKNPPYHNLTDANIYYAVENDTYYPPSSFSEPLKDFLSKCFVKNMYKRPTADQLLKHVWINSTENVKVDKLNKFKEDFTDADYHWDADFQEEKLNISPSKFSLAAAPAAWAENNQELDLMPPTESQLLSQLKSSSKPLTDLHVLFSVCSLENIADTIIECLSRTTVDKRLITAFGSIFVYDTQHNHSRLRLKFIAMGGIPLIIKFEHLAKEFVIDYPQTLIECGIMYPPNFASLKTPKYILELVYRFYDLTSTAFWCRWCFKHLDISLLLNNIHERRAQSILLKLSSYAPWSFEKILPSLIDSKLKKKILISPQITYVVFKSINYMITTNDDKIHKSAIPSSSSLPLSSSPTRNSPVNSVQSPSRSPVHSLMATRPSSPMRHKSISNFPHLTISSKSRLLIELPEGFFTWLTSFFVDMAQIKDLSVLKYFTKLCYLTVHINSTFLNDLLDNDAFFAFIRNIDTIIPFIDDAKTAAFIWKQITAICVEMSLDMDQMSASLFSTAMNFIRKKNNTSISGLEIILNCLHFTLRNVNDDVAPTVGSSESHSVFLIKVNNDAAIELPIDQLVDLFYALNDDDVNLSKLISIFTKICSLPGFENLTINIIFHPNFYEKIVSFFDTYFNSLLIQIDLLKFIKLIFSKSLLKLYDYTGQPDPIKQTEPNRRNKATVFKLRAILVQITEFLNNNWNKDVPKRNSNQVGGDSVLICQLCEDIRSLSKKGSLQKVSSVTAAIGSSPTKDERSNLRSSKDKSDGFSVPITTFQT

Variants of: B1
Conditions: with amn1_yeast AMN1, P38285
MATPSTGANNSIPAVRNQVEVQVGLVGDAQVGKTSLMVKYVQNIYDKEYTQTLGVNFLKRKVSIRSTDIIFSIMDLGGQREFINMLPIATVGSSVIIFLFDLTRPETLSSIKEWYRQAYGLNDSAIPILVGTKYALLIDLDPEYQEQISRTSMKYAQVMNAPLIFCSTAKSINIQKIFKIALAKIFNLTLTIPEINEIGDPLLIYKHLGGQQHRHHNKSQDRKSHNIRKPSSSPSSKAPSPGVNT [D135A] was tested, and the “effect of a mutation on the interaction” value was “disrupting interaction”.
MATPSTGANNSIPAVRNQVEVQVGLVGDAQVGKASLMVKYVQNIYDKEYTQTLGVNFLKRKVSIRSTDIIFSIMDLGGQREFINMLPIATVGSSVIIFLFDLTRPETLSSIKEWYRQAYGLNDSAIPILVGTKYDLLIDLDPEYQEQISRTSMKYAQVMNAPLIFCSTAKSINIQKIFKIALAKIFNLTLTIPEINEIGDPLLIYKHLGGQQHRHHNKSQDRKSHNIRKPSSSPSSKAPSPGVNT [T34A] was tested, and the “effect of a mutation on the interaction” value was “decreasing interaction”.

Variants of: B2
Conditions: with cdc15_yeast CDC15, P27636
With MATPSTGANNSIPAVRNQVEVQVGLVGDAQVGKASLMVKYVQNIYDKEYTQTLGVNFLKRKVSIRSTDIIFSIMDLGGQREFINMLPIATVGSSVIIFLFDLTRPETLSSIKEWYRQAYGLNDSAIPILVGTKYDLLIDLDPEYQEQISRTSMKYAQVMNAPLIFCSTAKSINIQKIFKIALAKIFNLTLTIPEINEIGDPLLIYKHLGGQQHRHHNKSQDRKSHNIRKPSSSPSSKAPSPGVNT [T34A] the “effect of a mutation on the interaction” value was “disrupting interaction”.
MATPSTGANNSIPAVRNQVEVQVGLVGDAQVGKTSLMVKYVQNIYDKEYTQTLGVNFLKRKVSIRSTDIIFSIMDLGGQREFINMLPIATVGSSVIIFLFDLTRPETLSSIKEWYRQAYGLNDSAIPILVGTKYALLIDLDPEYQEQISRTSMKYAQVMNAPLIFCSTAKSINIQKIFKIALAKIFNLTLTIPEINEIGDPLLIYKHLGGQQHRHHNKSQDRKSHNIRKPSSSPSSKAPSPGVNT [D135A] was tested, and the “effect of a mutation on the interaction” value was “disrupting interaction”.
